# Biological target: T1, WT human CXCL12α (human, UniProt P48061-2 22-89, 15N-labelled in one NMR orientation; FITC in flow cytometry (Fig 6H))
# T1 construct: CXCL12 alpha, human, codon-optimised cDNA, released from the thioredoxin-His fusion by enterokinase; also called CXCL12 FITC; source: E. coli BL21(DE3), from inclusion bodies, purified (HisTrap, Heparin HP, enterokinase cleavage, Mono S); not shown: thioredoxin, N-terminal, cleaved; His tag, N-terminal, cleaved
# Assay: far-Western, overlay or dot blot; solid-phase immunoassay: 100 ng of Gal-3 or Gal-3 CRD variants on nitrocellulose, 120 nM CXCL12 overnight, SA-HRP, densitometry (Appendix Fig S7)
# Settings: both partners purified
row,Binder,binding result
1,"Gal‐3 CRD mutant N160A (domain or fragment, UniProt P17931 108-250, looked up, The limits are those printed for the wild-type CRD) GAPAGPLIVPYNLPLPGGVVPRMLITILGTVKPNANRIALDFQRGNDVAFHFAPRFNENNRRVIVCNTKLDNNWGREERQSVFPFESGKPFKIQVLVEPDHFKVAVNDAHLLQYNHRVKKLNEISKLGISGDIDLTSASYTMI",binds
2,"Gal‐3 CRD mutant E185A (domain or fragment, UniProt P17931 108-250, looked up, The limits are those printed for the wild-type CRD) GAPAGPLIVPYNLPLPGGVVPRMLITILGTVKPNANRIALDFQRGNDVAFHFNPRFNENNRRVIVCNTKLDNNWGREARQSVFPFESGKPFKIQVLVEPDHFKVAVNDAHLLQYNHRVKKLNEISKLGISGDIDLTSASYTMI",binds
3,"Gal‐3 CRD mutant N222A (domain or fragment, UniProt P17931 108-250, looked up, The limits are those printed for the wild-type CRD) GAPAGPLIVPYNLPLPGGVVPRMLITILGTVKPNANRIALDFQRGNDVAFHFNPRFNENNRRVIVCNTKLDNNWGREERQSVFPFESGKPFKIQVLVEPDHFKVAVNDAHLLQYAHRVKKLNEISKLGISGDIDLTSASYTMI",binds

# Biological target: T1, WT human CXCL12α
# Assay: NMR titration; 1H-15N HSQC, 15N-labelled protein with unlabelled partner (10 μM 15N-CXCL12 with 330 μM Gal-3 CRD; 30 μM 15N-Gal-3 CRD with 500 μM CXCL12; 30 μM 15N-CXCL12 with 500 μM Gal-3 CRD mutants), 20 mM sodium acetate pH 4.5, 4.5 mM lactose, 37°C
# Settings: both partners purified
row,Binder,CXCL12 sequence-averaged Δδ [ppm]
1,"Gal‐3 CRD mutant Q220E (domain or fragment, UniProt P17931 108-250, looked up, The limits are those printed for the wild-type CRD) GAPAGPLIVPYNLPLPGGVVPRMLITILGTVKPNANRIALDFQRGNDVAFHFNPRFNENNRRVIVCNTKLDNNWGREERQSVFPFESGKPFKIQVLVEPDHFKVAVNDAHLLEYNHRVKKLNEISKLGISGDIDLTSASYTMI",0.0073
2,"Gal‐3 CRD mutant H217A (domain or fragment, UniProt P17931 108-250, looked up, The limits are those printed for the wild-type CRD) GAPAGPLIVPYNLPLPGGVVPRMLITILGTVKPNANRIALDFQRGNDVAFHFNPRFNENNRRVIVCNTKLDNNWGREERQSVFPFESGKPFKIQVLVEPDHFKVAVNDAALLQYNHRVKKLNEISKLGISGDIDLTSASYTMI",0.0048
3,"Gal‐3 CRD mutant Q220K (domain or fragment, UniProt P17931 108-250, looked up, The limits are those printed for the wild-type CRD) GAPAGPLIVPYNLPLPGGVVPRMLITILGTVKPNANRIALDFQRGNDVAFHFNPRFNENNRRVIVCNTKLDNNWGREERQSVFPFESGKPFKIQVLVEPDHFKVAVNDAHLLKYNHRVKKLNEISKLGISGDIDLTSASYTMI",0.0036

# — publication PMC7132340 (EMBO Reports, 2020)
